Test results as given in patent US20240261333A1, “NOVEL TARGETS FOR ENHANCING ANTI-TUMOR IMMUNITY” (THE BROAD INSTITUTE, INC., priority 2021, published 2024).

T1: B3GNT2 (Homo sapiens, UniProt Q9NY97)
T1 construct: The respective ORFs of candidate genes [CD274 (NM_014143), MCL1 (NM_021960), JUNB (NM_002229), and B3GNT2 (NM_006577)] were synthesized; expressed in transfected cells; host or cells: A375 melanoma cells (lentiviral ORF overexpression)
T1 sequence (Q9NY97 1-397): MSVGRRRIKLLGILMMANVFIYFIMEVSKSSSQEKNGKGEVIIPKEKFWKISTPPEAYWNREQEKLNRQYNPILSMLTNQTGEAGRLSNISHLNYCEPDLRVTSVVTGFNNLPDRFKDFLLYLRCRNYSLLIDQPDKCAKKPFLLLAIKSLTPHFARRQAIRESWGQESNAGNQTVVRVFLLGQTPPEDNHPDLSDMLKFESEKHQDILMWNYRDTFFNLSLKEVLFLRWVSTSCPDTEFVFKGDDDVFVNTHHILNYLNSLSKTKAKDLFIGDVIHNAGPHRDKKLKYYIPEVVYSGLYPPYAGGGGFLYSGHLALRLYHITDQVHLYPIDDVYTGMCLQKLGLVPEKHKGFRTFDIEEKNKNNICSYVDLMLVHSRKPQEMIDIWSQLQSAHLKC


Biological target: T1, B3GNT2
Assay: Co-IP of FLAG-tagged B3GNT2 followed by mass spectrometry
Assay type: cell-based
Set-up: C-term IgG / C-term flag: unit not given here
Description: Cells were plated in 10-cm cell culture dishes and grown to 60-80% confluency. For each condition, two biological replicates were harvested for co-IP. Cells were washed with PBS and 4 mL of lysis buffer (20 mM HEPES, 1% Triton X-100, 150 mM NaCl, 1 mM EDTA, and 10% glycerol) containing protease inhibitor cocktail was added. Cells were scraped and lysate was incubated at 4° C. under rotary agitation for 1 h. Lysate was centrifuged at 14,000×g for 10 min at 4° C. Supernatant was transferred to a new tube and an aliquot was taken as the input. […] For Western blots, 10 μg/mL Chicken Anti-FLAG (Aves labs ET-DY100) and IgY control (R&D Systems AB-101-C) antibodies were biotinylated (Thermo Fisher Scientific 90407) and added to the respective conditions. Lysates with antibodies were incubated at 4° C. under rotary agitation overnight. For each mL of lysate, 50 μL of Pierce Protein A/G Magnetic Beads (Mass spectrometry; Thermo Fisher Scientific 88803) or Pierce Streptavidin Magnetic Beads (Western blot; Thermo Fisher Scientific 88817) was washed twice with lysis buffer. Lysates with antibodies were added to the beads and incubated at 4° C. under rotary agitation for 4 h. Beads were washed with lysis buffer 3 times and resuspended in lysis buffer for storage. […] This solution was subjected to solid phase extraction to concentrate the peptides and remove unwanted reagents followed by injection onto a Shimadzu HPLC with fraction collector. Eight fractions were collected and after concentration were injected on a Waters NanoAcquity HPLC equipped with a self-packed Aeris 3 μm C18 analytical column 0.075 mm by 20 cm, (Phenomenex). Peptides were eluted using standard reverse-phase gradients. The effluent from the column was analyzed using a Thermo Orbitrap Elite mass spectrometer (nanospray configuration) operated in a data dependent manner for 54 minutes. […] Scaffold Q+S (Proteome Software) was used to provide consensus reports for the identified proteins.

[1] = Co-IP with FLAG antibody, C-terminally FLAG-tagged B3GNT2, mass spectrometry count, unit not given
[2] = Co-IP with FLAG antibody, N-terminally FLAG-tagged B3GNT2, mass spectrometry count, unit not given
[3] = Co-IP with IgG control antibody, C-terminally FLAG-tagged B3GNT2, mass spectrometry count, unit not given
[4] = Co-IP with IgG control antibody, N-terminally FLAG-tagged B3GNT2, mass spectrometry count, unit not given

Molecule	C-term flag [1]	N-term FLAG [2]	C-term IgG [3]	N-term IgG [4]	C-term flag (Co-IP followed by mass spectrometry of B3GNT2, C-term tag, FLAG pull-down)	C-term IgG (Co-IP followed by mass spectrometry of B3GNT2, C-term tag, IgG pull-down)	N-term FLAG (Co-IP followed by mass spectrometry of B3GNT2, N-term tag, FLAG pull-down)	N-term IgG (Co-IP followed by mass spectrometry of B3GNT2, N-term tag, IgG pull-down)
SSR1 (protein) VLFRGGPRGLLAVAQDLTEDEETVEDSIIEDEDDEAEVEEDEPTDLVEDKEEEDVSGEPEASPSADTTILFVKGEDFPANNIVKFLVGFTNKGTEDFIVESLDASFRYPQDYQFYIQNFTALPLNTVVPPQRQATFEYSFIPAEPMGGRPFGLVINLNYKDLNGNVFQDAVFNQTVTVIEREDGLDGETIFMYMFLAGLGLLVIVGLHQLLESRKRKRPIQKVEMGTSSQNDVDMSWIPQETLNQINKASPRRLPRKRAQKRSVGSDE	4	3	0	0	–	–	–	–
DSTN (protein) ASGVQVADEVCRIFYDMKVRKCSTPEEIKKRKKAVIFCLSADKKCIIVEEGKEILVGDVGVTITDPFKHFVGMLPEKDCRYALYDASFETKESRKEELMFFLWAPELAPLKSKMIYASSKDAIKKKFQGIKHECQANGPEDLNRACIAEKLGGSLIVAFEGCPV	3	0	0	0	–	–	–	–
RARS (protein) MDVLVSECSARLLQQEEEIKSLTAEIDRLKNCGCLGASPNLEQLQEENLKLKYRLNILRKSLQAERNKPTKNMINIISRLQEVFGHAIKAAYPDLENPPLLVTPSQQAKFGDYQCNSAMGISQMLKTKEQKVNPREIAENITKHLPDNECIEKVEIAGPGFINVHLRKDFVSEQLTSLLVNGVQLPALGENKKVIVDFSSPNIAKEMHVGHLRSTIIGESISRLFEFAGYDVLRLNHVGDWGTQFGMLIAHLQDKFPDYLTVSPPIGDLQVFYKESKKRFDTEEEFKKRAYQCVVLLQGKNPDITKAWKLICDVSRQELNKIYDALDVSLIERGESFYQDRMNDIVKEFEDRGFVQVDDGRKIVFVPGCSIPLTIVKSDGGYTYDTSDLAAIKQRLFEEKADMIIYVVDNGQSVHFQTIFAAAQMIGWYDPKVTRVFHAGFGVVLGEDKKKFKTRSGETVRLMDLLGEGLKRSMDKLKEKERDKVLTAEELNAAQTSVAYGCIKYADLSHNRLNDYIFSFDKMLDDRGNTAAYLLYAFTRIRSIARLANIDEEMLQKAARETKILLDHEKEWKLGRCILRFPEILQKILDDLFLHTLCDYIYELATAFTEFYDSCYCVEKDRQTGKILKVNMWRMLLCEAVAAVMAKGFDILGIKPVQRM	2	0	0	0	–	–	–	–
DNAJB11 (protein) GRDFYKILGVPRSASIKDIKKAYRKLALQLHPDRNPDDPQAQEKFQDLGAAYEVLSDSEKRKQYDTYGEEGLKDGHQSSHGDIFSHFFGDFGFMFGGTPRQQDRNIPRGSDIIVDLEVTLEEVYAGNFVEVVRNKPVARQAPGKRKCNCRQEMRTTQLGPGRFQMTQEVVCDECPNVKLVNEERTLEVEIEPGVRDGMEYPFIGEGEPHVDGEPGDLRFRIKVVKHPIFERRGDDLYTNVTISLVESLVGFEMDITHLDGHKVHISRDKITRPGAKLWKKGEGLPNFDNNNIKGSLIITFDVDFPKEQLTEEAREGIKQLLKQGSVQKVYNGLQGY	4	3	0	0	–	–	–	–
HNRNPA1 (protein) SKSESPKEPEQLRKLFIGGLSFETTDESLRSHFEQWGTLTDCVVMRDPNTKRSRGFGFVTYATVEEVDAAMNARPHKVDGRVVEPKRAVSREDSQRPGAHLTVKKIFVGGIKEDTEEHHLRDYFEQYGKIEVIEIMTDRGSGKKRGFAFVTFDDHDSVDKIVIQKYHTVNGHNCEVRKALSKQEMASASSSQRGRSGSGNFGGGRGGGFGGNDNFGRGGNFSGRGGFGGSRGGGGYGGSGDGYNGFGNDGGYGGGGPGYSGGSRGYGSGGQGYGNQGSGYGGSGSYDSYNNGGGGGFGGGSGSNFGGGGSYNDFGNYNNQSSNFGPMKGGNFGGRSSGPYGGGGQYFAKPRNQGGYGGSSSSSSYGSGRRF	9	7	4	4	–	–	–	–
SPRR2E (protein) MSYQQQQCKQPCQPPPVCPTPKCPEPCPPPKCPEPCPPPKCPQPCPPQQCQQKCPPVTPSPPCQPKCPPKSK	0	16	5	3	–	–	–	–
ATXN2L (protein) MLKPQPLQQPSQPQQPPPTQQAVARRPPGGTSPPNGGLPGPLATSAAPPGPPAAASPCLGPVAAAGSGLRRGAEGILAPQPPPPQQHQERPGAAAIGSARGQSTGKGPPQSPVFEGVYNNSRMLHFLTAVVGSTCDVKVKNGTTYEGIFKTLSSKFELAVDAVHRKASEPAGGPRREDIVDTMVFKPSDVMLVHFRNVDFNYATKDKFTDSAIAMNSKVNGEHKEKVLQRWEGGDSNSDDYDLESDMSNGWDPNEMFKFNEENYGVKTTYDSSLSSYTVPLEKDNSEEFRQRELRAAQLAREIESSPQYRLRIAMENDDGRTEEEKHSAVQRQGSGRESPSLASREGKYIPLPQRVREGPRGGVRCSSSRGGRPGLSSLPPRGPHHLDNSSPGPGSEARGINGGPSRMSPKAQRPLRGAKTLSSPSNRPSGETSVPPPPAVGRMYPPRSPKSAAPAPISASCPEPPIGSAVPTSSASIPVTSSVSDPGVGSISPASPKISLAPTDVKELSTKEPGRTLEPQELARIAGKVPGLQNEQKRFQLEELRKFGAQFKLQPSSSPENSLDPFPPRILKEEPKGKEKEVDGLLTSEPMGSPVSSKTESVSDKEDKPPLAPSGGTEGPEQPPPPCPSQTGSPPVGLIKGEDKDEGPVAEQVKKSTLNPNAKEFNPTKPLLSVNKSTSTPTSPGPRTHSTPSIPVLTAGQSGLYSPQYISYIPQIHMGPAVQAPQMYPYPVSNSVPGQQGKYRGAKGSLPPQRSDQHQPASAPPMMQAAAAAGPPLVAATPYSSYIPYNPQQFPGQPAMMQPMAHYPSQPVFAPMLQSNPRMLTSGSHPQAIVSSSTPQYPSAEQPTPQALYATVHQSYPHHATQLHAHQPQPATTPTGSQPQSQHAAPSPVQHQAGQAPHLGSGQPQQNLYHPGALTGTPPSLPPGPSAQSPQSSFPQPAAVYAIHHQQLPHGFTNMAHVTQAHVQTGITAAPPPHPGAPHPPQVMLLHPPQSHGGPPQGAVPQSGVPALSASTPSPYPYIGHPQGEQPGQAPGFPGGADDRIREFSLAGGIWHGRAEGLQVGQDARVLGGE	–	–	–	–	5	2	5	3
SDF4 (protein) RPANHSSTRERVANREENEILPPDHLNGVKLEMDGHLNRGFHQEVFLGKDLGGFDEDAEPRRSRRKLMVIFSKVDVNTDRKISAKEMQRWIMEKTAEHFQEAMEESKTHFRAVDPDGDGHVSWDEYKVKFLASKGHSEKEVADAIRLNEELKVDEETQEVLENLKDRWYQADSPPADLLLTEEEFLSFLHPEHSRGMLRFMVKEIVRDLDQDGDKQLSVPEFISLPVGTVENQQGQDIDDNWVKDRKKEFEELIDSNHDGIVTAEELESYMDPMNEYNALNEAKQMIAVADENQNHHLEPEEVLKYSEFFTGSKLVDYARSVHEEF	7	0	0	0	–	–	–	–
